Values belong to the molecule of their own block, whether it stands above or below them.
Tests used:
[1] = cited from earlier work
WEN1.3 cells = test: Endogenous IL-10 secretion (ELISA) in WEN1.3 hybridoma cells; type: cell-based; conditions: for Fold change (IL-10 concentration in supernatant): 0 ng vs. 100 ng RR120/mL, 24 h
Method: WEN1.3 cells (See Pogson M et al., Nat. Commun., 2016, 7:12535) were cultivated in DMEM (52100039, Thermo Fisher) supplemented with 10% (v/v) heat-inactivated FBS (F7524, lot BCBS0318V, Sigma-Aldrich), 1% (v/v) streptomycin/penicillin (L0022, Biowest), 10 mM HEPES buffer (Ser. No. 15/630,056, Thermo Fisher), and […] 2-mercaptoethanol (M3148, Sigma-Aldrich) in a humidified atmosphere of 5% CO2 in air at 37° C. Cells were transfected by electroporation with program CQ-104 of the 4D-Nucleofector System (Lonza) and the SF Cell Line 4D-Nucleofector X Kit L (V4XC-2024, Lonza).
For each transfection 1×10^6 cells were washed twice by centrifugation for 5 min at 90 g and then resuspended in 1 mL of Opti-MEM I Reduced Serum Medium (31985062, Thermo Fisher); after washing, the cells were resuspended in 100 μL Lonza SF buffer containing 0.5 μg sleeping beauty transposase expression plasmid (pCMV(CAT)T7-SB100) and 9.5 μg of a plasmid for stable integration and expression of JAK/STAT-GEMS (pLeo695) or MAPK-GEMS (pLeo694). After pulsing, 500 μL prewarmed culture medium was added for 10 min. Cells were transferred to 1 mL culture media in 24-well plates (142475, Thermo Fisher) and were grown for 48 h. For creating stable cell lines, cells were transferred to 3 mL culture media in 6-well plates (140675, Thermo Fisher) and were selected with 5 μg/mL puromycin (ANT-PR-1, InvivoGen) for 14 d. For experiments, cells were centrifuged for 5 min at 90 g and resuspended in culture media (with or without RR120) to give a concentration of 1×10^6 cells/mL, and then 500 μL of the cell suspension was transferred per well of a 48-well plate. IL-10 ELISAs (900-TM53, PeproTech) were performed 24 h after induction.

[2] = test system: JAK/STAT signaling through STAT3; test: C-STAR caffeine-inducible STAT3 SEAP reporter assay in HEK-293T cells; type: cell-based, human; conditions: 1 μM concentration; C-STARDB1 cells; FIG. 22
Method: All cells were cultured in a humidified atmosphere containing 5% CO2 at 37° C.

[3] = biological target: SunTag8×-mCherry fusion protein; test: cell-based or functional assay
[4] = test system: NFAT, STAT3 and MAPK signaling; test: GEMS pathway crosstalk reporters (FIG. 13A-B) in HEK-293T cells; type: cell-based, human
Method: Human embryonic kidney cells (HEK-293T, American Type Culture Collection (ATCC): CRL-11268) were cultivated in Dulbecco's modified Eagle's medium (DMEM; 52100039, Thermo Fisher) supplemented with 10% (v/v) FBS (F7524, lot BCBS0318V, Sigma-Aldrich) and 1% (v/v) streptomycin/penicillin (L0022, Biowest) in a humidified atmosphere of 5% CO2 in air at 37° C. For experiments, 1.5×10^6 cells in 12 mL DMEM were seeded into 96-well plates (167008, Thermo Fisher) 24 h before transfection. The transfection mix in each well consisted of 125-130 ng of plasmid DNA mixed with 50 μL FBS and antibiotics-free DMEM and 600 ng of polyethyleneimine (24765-1, Polysciences, Inc.). The transfection mix was prepared separately, incubated for 20 min and then added to the cells for overnight transfection. […] Reporter output was measured 24 h after induction for all experiments. […]
FIGS. 5A-C; FIG. 6A; FIG. 8; FIG. 9; FIGS. 10A-B; FIGS. 11A-C; FIG. 12; FIGS. 13A-B: 600 ng of receptor plasmids (for heterodimeric receptors 300 ng of each subunit) and for STAT readout 150 ng of a STAT3 reporter plasmid (pLS13) and 25 ng of a STAT3 expression vector (pLS15); for MAPK-readout 75 ng of a TetR reporter plasmid (pMF111) and 100 ng of a TetR-Elk1 fusion expression vector (MKp37); for NFAT readout 175 ng of a NFAT reporter plasmid (pHY30) and for NF-κB readout 175 ng of a NF-κB reporter plasmid (pKR32). […]

[5] = test system: JAK/STAT signaling (STAT3 reporter); test: GEMS STAT3-responsive SEAP reporter assay in HEK-293T cells; type: cell-based, human; conditions: for Fold change (SEAP reporter): 24 h induction; for Response to erythropoietin: FIG. 5B, with / without F93A modification of EpoR
Method: Human embryonic kidney cells (HEK-293T, American Type Culture Collection (ATCC): CRL-11268) were cultivated in Dulbecco's modified Eagle's medium (DMEM; 52100039, Thermo Fisher) supplemented with 10% (v/v) FBS (F7524, lot BCBS0318V, Sigma-Aldrich) and 1% (v/v) streptomycin/penicillin (L0022, Biowest) in a humidified atmosphere of 5% CO2 in air at 37° C. For experiments, 1.5×10^6 cells in 12 mL DMEM were seeded into 96-well plates (167008, Thermo Fisher) 24 h before transfection. The transfection mix in each well consisted of 125-130 ng of plasmid DNA mixed with 50 μL FBS and antibiotics-free DMEM and 600 ng of polyethyleneimine (24765-1, Polysciences, Inc.). The transfection mix was prepared separately, incubated for 20 min and then added to the cells for overnight transfection. In the morning, medium with the transfection mix was exchanged for 130 μL/well medium with different concentrations of the appropriate inducer or no inducer as a negative control. Reporter output was measured 24 h after induction for all experiments. Plasmid amounts used for transfections per set of six wells of a 96-well plate were as follows:
FIG. 3B; FIG. 4B: 5 ng for each receptor subunit or as indicated in the figure, 150 ng STAT3 reporter plasmid (pLS13), 25 ng STAT3 expression vector (pLS15) and […] (or the appropriate amount to make a total of 775 ng) of a plasmid without mammalian promoter (pDF145).
FIGS. 5A-C; FIG. 6A; FIG. 8; FIG. 9; FIGS. 10A-B; FIGS. 11A-C; FIG. 12; FIGS. 13A-B: 600 ng of receptor plasmids (for heterodimeric receptors 300 ng of each subunit) and for STAT readout 150 ng of a STAT3 reporter plasmid (pLS13) and 25 ng of a STAT3 expression vector (pLS15); for MAPK-readout 75 ng of a TetR reporter plasmid (pMF111) and 100 ng of a TetR-Elk1 fusion expression vector (MKp37); for NFAT readout 175 ng of a NFAT reporter plasmid (pHY30) and for NF-κB readout 175 ng of a NF-κB reporter plasmid (pKR32).
SEAP concentrations in cell culture supernatants were quantified in terms of absorbance increase due to hydrolysis of para-nitrophenyl phosphate (pNPP). 80 μL of heat-inactivated (30 min at 65° C., then centrifuged for 1 min, 3,220 g) supernatant was mixed in a 96-well dish with 100 μL of 2×SEAP buffer (20 mM homoarginine, 1 mM MgCl2, 21% (v/v) diethanolamine, pH 9.8) and 20 μL of substrate solution containing 20 mM pNPP (Acros Organics BVBA). Samples were measured at 405 nm with a Tecan Genios PRO multiplate reader (Tecan AG) or an EnVision 2104 multilabel reader (PerkinElmer). SEAP production in vivo was quantified with the chemiluminescence SEAP reporter gene assay (cat. no. 11779842001, Sigma-Aldrich) according to the manufacturer's instructions.

Molecule: Cn1c(=O)c2c(ncn2C)n(C)c1=O [caffeine]
Half-life of caffeine in human blood [1]: approximately five

Molecule: O=S(=O)(O)c1cc(Nc2nc(Cl)nc(Nc3ccc(Nc4nc(Cl)nc(Nc5cc(S(=O)(=O)O)cc6cc(S(=O)(=O)O)c(N=Nc7ccccc7S(=O)(=O)O)c(O)c56)n4)cc3)n2)c2c(O)c(N=Nc3ccccc3S(=O)(=O)O)c(S(=O)(=O)O)cc2c1 [RR120, reactive red 120, reference compound]
Fold change (IL-10 concentration in supernatant) (WEN1.3 cells; WT WEN1.3 cells (no receptor)): 1.1 fold

Molecule: Cn1c(=O)c2[nH]cnc2n(C)c1=O [theophylline]
Cross-activation of C-STAR by caffeine analogs [2]: modest cross-activation

Fold change of MAPK reporter (NanoLuc), 0% vs. 0.002 % (v/v) bacterial lysate (SunTag), cells co-transfected with MAPK-GEMSRR120 (Y677F), FIG. 13C [3]: 1.3 fold
Fold change of SEAP, 0 % vs. 0.002 % (v/v) bacterial lysate (SunTag), FIG. 10A [3]: 6.9 fold
Fold change of SEAP, 0 % vs. 0.02 % (v/v) bacterial lysate (SunTag), FIG. 10A [3]: 30 fold
Fold change of STAT3 reporter (SEAP), 0% vs. 0.002 % (v/v) bacterial lysate (SunTag), cells co-transfected with MAPK-GEMSRR120 (Y677F), FIG. 13C [3]: 12.9 fold
Fold change of STAT3 reporter (SEAP), no inducer vs. 100 ng RR120/mL + 0.002 % (v/v) bacterial lysate (SunTag), cells co-transfected with MAPK-GEMSRR120 (Y677F), FIG. 13C [3]: 14.9 fold
B1: JAK/STAT-GEMSSunTag (pLeo620; scFvαGCN4-EpoRm-IL-6RBm) (receptor, part only; not given: Signal peptide and scFv-EpoR linker, part only)
chain, part: DIVMTQSPSSLSASVGDRVTITCRSSTGAVTTSNYASWVQEKPGKLFKGLIGGTNNRAPGVPSRFSGSLIGDKATLTISSLQPEDFATYFCALWYSNHWVFGQGTKVELKRGGGGSGGGGSGGGGSSGGGSEVKLLESGGGLVQPGGSLKLSCAVSGFSLTDYGVNWVRQAPGRGLEWIGVIWGDGITDYNSALKDRFIISKDNGKNTVYLQMSKVRSDDTALYYCVTGLFDYWGQGTLVTVSAPSPSLPDPKFESKAALLASRGSEELLCFTQRLEDLVCFWEEAASSGMDFNYSFSYQLEGESRKSCSLHQAPTVRGSVRFWCSLPTADTSSAVPLELQVTEASGSPRYHRIIHINEVVLLDAPAGLLARRAEEGSHVVLRWLPPPGAPMTTHIRYEVDVSAGNRAGGTQRVEVLEGRTECVLSNLRGGTRYTFAVRARMAEPSFSGFWSAWSEPASLLTASDLDPLILTLSLILVLISLLLTVLALLSAAANKRDLIKKHIWPNVPDPSKSHIAQWSPHTPPRHNFNSKDQMYSDGNFTDVSVVEIEANDKKPFPEDLKSLDLFKKEKINTEGHSSGIGGSSCMSSSRPSISSSDENESSQNTSSTVQASTVVHSGYRHQVPSVQVFSRSESTQPLLDSEERPEDLQLVDHVDGGDGILPRQQYFKQNCSQHESSPDISHFERSKQVSSVNEEDFVRLKQQISDHISQSCGSGQMKMFQEVSAADAFGPGTEGQVERFETVGMEAATDEGMPKSYLPQTVRQGGYMPQ

B2: JAK/STAT-GEMSRR120: PSV40-VHHA52-EpoRm-IL-6RBm-pA; optimized chimeric receptor (GEMS device) targeting RR120, JAK/STAT signaling (protein)
chain: VQLQESGGGLVQAGDSLKLSCEASGDSIGTYVIGWFRQAPGKERIYLATIGRNLVGPSDFYTRYADSVKGRFAVSRDNAKNTVNLQMNSLKPEDTAVYYCAAKTTTWGGNDPNNWNYWGQGTQVTVSGEFAPSPSLPDPKFESKAALLASRGSEELLCFTQRLEDLVCFWEEAASSGMDFNYSFSYQLEGESRKSCSLHQAPTVRGSVRFWCSLPTADTSSAVPLELQVTEASGSPRYHRIIHINEVVLLDAPAGLLARRAEEGSHVVLRWLPPPGAPMTTHIRYEVDVSAGNRAGGTQRVEVLEGRTECVLSNLRGGTRYTFAVRARMAEPSFSGFWSAWSEPASLLTASDLDPLILTLSLILVLISLLLTVLALLSAAANKRDLIKKHIWPNVPDPSKSHIAQWSPHTPPRHNFNSKDQMYSDGNFTDVSVVEIEANDKKPFPEDLKSLDLFKKEKINTEGHSSGIGGSSCMSSSRPSISSSDENESSQNTSSTVQASTVVHSGYRHQVPSVQVFSRSESTQPLLDSEERPEDLQLVDHVDGGDGILPRQQYFKQNCSQHESSPDISHFERSKQVSSVNEEDFVRLKQQISDHISQSCGSGQMKMFQEVSAADAFGPGTEGQVERFETVGMEAATDEGMPKSYLPQTVRQGGYMPQ
IL-10 secretion upon GEMS activation by RR120 (WEN1.3 cells; FIG. 14): substantially increased IL-10 secretion
Fold change (IL-10 concentration in supernatant) (WEN1.3 cells; stable polyclonal WEN1.3 cell line expressing the receptor): 1.5 fold
Crosstalk to other signaling pathways [4]: cancelled the interference with MAPK signaling
Fold change (SEAP reporter) ([5]; 0 ng vs. 1 ng RR120/mL): 5.4 fold
Fold change (SEAP reporter) ([5]; 0 ng vs. 100 ng RR120/mL): 45 fold
Response to erythropoietin [5]: induced with RR120 but not with erythropoietin
Ratio of induced versus noninduced SEAP secretion (signal-to-noise ratio) ([5]; RR120 as inducer, FIG. 5C): over 40 fold

B3: pLeo618: PSV40-VHHA52-EpoR3A-IL-6RBm-pA; receptor with Y759A, without F93A modification (protein)
chain: VQLQESGGGLVQAGDSLKLSCEASGDSIGTYVIGWFRQAPGKERIYLATIGRNLVGPSDFYTRYADSVKGRFAVSRDNAKNTVNLQMNSLKPEDTAVYYCAAKTTTWGGNDPNNWNYWGQGTQVTVSGEFAPSPSLPDPKFESKAALLASRGSEELLCFTQRLEDLVCFWEEAASSGMDFNYSFSYQLEGESRKSCSLHQAPTVRGSVRFWCSLPTADTSSFVPLELQVTEASGSPRYHRIIHINEVVLLDAPAGLLARRAEEGSHVVLRWLPPPGAPMTTHIRYEVDVSAGNRAGGTQRVEVLEGRTECVLSNLRGGTRYTFAVRARMAEPSFSGFWSAWSEPASLLTASDLDPLILTLSLILVLISLLLTVLALLSAAANKRDLIKKHIWPNVPDPSKSHIAQWSPHTPPRHNFNSKDQMYSDGNFTDVSVVEIEANDKKPFPEDLKSLDLFKKEKINTEGHSSGIGGSSCMSSSRPSISSSDENESSQNTSSTVQASTVVHSGYRHQVPSVQVFSRSESTQPLLDSEERPEDLQLVDHVDGGDGILPRQQYFKQNCSQHESSPDISHFERSKQVSSVNEEDFVRLKQQISDHISQSCGSGQMKMFQEVSAADAFGPGTEGQVERFETVGMEAATDEGMPKSYLPQTVRQGGYMPQ
Response to erythropoietin [5]: respond strongly to erythropoietin

Reference: patent US20200216514A1, “Generalized Extracellular Molecule Sensor” (ETH ZURICH, priority 2019, published 2020)
